For one data set, the target named is Cys333 (UniProt position 333, PIMASCGTGVT). Kind of data set: chemical modification (H2O2 inactivation) with activity readout. The settings on record: Not stated for the pH pre-incubation. The activity assay was at 25 °C.; Not stated (100 mM buffers); 100 mM sodium citrate, MES, phosphate or borate buffers for the pre-incubation. Activity assay in 30 mM Tris-HCl pH 8.0.; Reduced enzyme (DTT-reduced and desalted), 2 uM, no substrate during the 3 min pre-incubation.

The target of data set [1] is T1, STR1 (Arabidopsis thaliana, UniProt O64530, C333S).
T1 construct: untagged (pET28a) or C-terminal His tag (used for Cys variants); E. coli BL21(DE3)
T1 sequence (O64530 57-379 C333S): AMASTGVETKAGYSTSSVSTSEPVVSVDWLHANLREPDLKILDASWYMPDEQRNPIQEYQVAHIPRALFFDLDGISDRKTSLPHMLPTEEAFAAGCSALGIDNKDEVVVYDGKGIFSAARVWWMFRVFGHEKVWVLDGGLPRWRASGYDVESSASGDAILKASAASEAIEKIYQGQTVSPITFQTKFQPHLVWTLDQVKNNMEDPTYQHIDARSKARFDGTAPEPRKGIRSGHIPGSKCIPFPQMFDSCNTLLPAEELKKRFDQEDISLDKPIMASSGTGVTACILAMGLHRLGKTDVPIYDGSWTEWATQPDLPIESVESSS
The experiment in a line: intrinsic tryptophan fluorescence quenching. The format is binding. The conditions noted are these: 2 μM protein, 100-fold excess 3-MP, pH 8.0; catalytic Cys variant.

In data set [2] the target is T2, STR1 (Arabidopsis thaliana, UniProt O64530).
T2 construct: untagged (pET28a) or C-terminal His tag (used for Cys variants); E. coli BL21(DE3)
T2 sequence (O64530 57-379): T1 sequence (O64530 57-379 C333S) with S277C
Kind of data set: intrinsic tryptophan fluorescence quenching. The format is binding.

For data set [3], the target named is T3, STR2 (Arabidopsis thaliana, UniProt Q24JL3).
T3 construct: untagged, pET12a; E. coli BL21(DE3)
T3 sequence (Q24JL3 1-342 limits assumed): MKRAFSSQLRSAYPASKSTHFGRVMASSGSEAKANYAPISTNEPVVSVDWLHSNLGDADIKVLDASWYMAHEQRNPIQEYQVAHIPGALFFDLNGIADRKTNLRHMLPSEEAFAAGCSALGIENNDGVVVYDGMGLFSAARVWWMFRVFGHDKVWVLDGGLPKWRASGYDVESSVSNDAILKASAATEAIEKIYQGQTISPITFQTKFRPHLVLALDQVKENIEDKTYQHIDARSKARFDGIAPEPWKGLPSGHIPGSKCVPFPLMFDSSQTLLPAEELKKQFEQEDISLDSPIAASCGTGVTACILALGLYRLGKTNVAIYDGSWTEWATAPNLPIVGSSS
Kind of data set: intrinsic tryptophan fluorescence quenching. The format is binding.

Data set [4] deals with T4, STR2 (Arabidopsis thaliana, UniProt Q24JL3, C298S).
T4 construct: untagged, pET12a; E. coli BL21(DE3)
T4 sequence (Q24JL3 1-342 C298S limits assumed): T3 sequence (Q24JL3 1-342 limits assumed) with C298S
Kind of data set: intrinsic tryptophan fluorescence quenching. The conditions noted are these: 2 μM protein, 100-fold excess 3-MP, pH 8.0; catalytic Cys variant. It counts as binding.

In a further data set the test system is Cys. The settings on record: cited from earlier work.
For another data set, the target named is Cys298 (UniProt position 298, PIAASCGTGVT). Kind of data set: chemical modification (H2O2 inactivation) with activity readout. The conditions noted are these: Not stated for the pH pre-incubation. The activity assay was at 25 °C.; Not stated (100 mM buffers); 100 mM sodium citrate, MES, phosphate or borate buffers for the pre-incubation. Activity assay in 30 mM Tris-HCl pH 8.0.; Reduced enzyme (DTT-reduced and desalted), 2 uM, no substrate during the 3 min pre-incubation.

Substrate in data set [5]: O=C(O)C(=O)CS
Kind of data set: H2S release, methylene blue assay. The format is biochemical, Arabidopsis thaliana. The settings on record: apparent, sulfur donor, acceptor 10 μM TRXh1 with NADPH and NTRB, pH 8.0, 25 °C. The source says:
(§1) H2S release, methylene blue assay on STR2

Substrate in data set [6]: N[C@@H](CS)C(=O)O
The experiment in a line: H2S release, methylene blue assay. It counts as biochemical, Arabidopsis thaliana. The settings on record: apparent, sulfur acceptor, 250 μM 3-MP, pH 8.0, 25 °C.
From the text: as §1

Substrate in data set [7]: O=C(O)C(=O)CS
The experiment in a line: H2S release, methylene blue assay. It counts as biochemical, Arabidopsis thaliana. The conditions noted are these: apparent, sulfur donor, acceptor 30 μM TRXo1 with NADPH and NTRB, pH 8.0, 25 °C. The source says: (§2) H2S release, methylene blue assay on STR1

Substrate in data set [8]: N[C@@H](CS)C(=O)O
The experiment in a line: H2S release, methylene blue assay. The format is biochemical, Arabidopsis thaliana. The conditions noted are these: apparent, sulfur acceptor, 250 μM 3-MP, pH 8.0, 25 °C.
From the text: as §2
The source holds these as a separate data set.

Substitutions are numbered along the chain they refer to.

The pKa is the negative logarithm of the acid dissociation constant. For “Sulfurtransferase 1 (STR1), mitochondrial 3-mercaptopyruvate sulfurtransferase (Arabidopsis thaliana)”, the pKa with Cys333 is on record as 3.8 ± 0.1.

As usually defined, the Kd is the free concentration of one partner at which half of the binding sites on the other are occupied at equilibrium, for simple one-to-one binding. Low readings indicate higher affinity, high ones lower affinity. Regarding `O=C(O)C(=O)CS` [3-MP], the “intrinsic tryptophan fluorescence quenching” value on STR1 [1] and at STR2 [4] was “intrinsic fluorescence of both variants also decreased after addition of 3-MP” each time. Further, the Kd was 1.3 ± 0.9 µM at STR1 [2] and 0.7 ± 0.3 µM on STR2 [3].

With “3-mercaptopyruvate sulfurtransferase (human MST) (Homo sapiens)”, in the data set with Cys, the pKa is reported as 5.2 ± 0.1.

For “Sulfurtransferase 2 (STR2), cytosolic 3-mercaptopyruvate sulfurtransferase (Arabidopsis thaliana)”, the pKa in the data set with Cys298 was 4.0 ± 0.1.

B1: STR2 (Arabidopsis thaliana) (protein)
chain: T3 sequence (Q24JL3 1-342 limits assumed)
notes: untagged, pET12a; E. coli BL21(DE3)
The Km is the concentration of substrate that gives half-maximal velocity. Usually kcat stands for the maximal rate divided by the concentration of active sites. Regarding B1, in [5], the Michaelis-Menten constant (Km) amounted to 377 ± 15 µM and the kcat was found to be 9.7 s⁻¹. Also, in [6], the Km worked out at 1300 ± 70 µM and the kcat turned out to be 1.5 s⁻¹.

B2: STR1 (Arabidopsis thaliana) (protein)
chain: T1 sequence (O64530 57-379 C333S) with S277C
notes: untagged (pET28a) or C-terminal His tag (used for Cys variants); E. coli BL21(DE3)
What is called kcat/Km is the second-order rate constant that governs catalysis at low substrate concentration. As for B2, in data set [7], the Km came to 286 ± 5 µM, the kcat came to 13.5 s⁻¹ and the kcat/Km was 47000 M⁻¹ s⁻¹. For the same molecule, in [8], the Michaelis-Menten constant (Km) is 2200 ± 400 µM, the kcat stood at 3.9 s⁻¹ and the kcat/Km came to 1700 M⁻¹ s⁻¹.

Values taken from article PMC7995614, “Arabidopsis thaliana 3-mercaptopyruvate sulfurtransferases interact with and are protected by reducing systems” (The Journal of Biological Chemistry, 2021).
